Measurements from paper PMC3443289.

Target: HIV-1_(JR-FL) Env(−)ΔCT glycoprotein (uncleaved, cytoplasmic tail-truncated envelope glycoprotein precursor) (HIV-1 (isolate JR-FL))
Assay: cryo-EM structure

HIV-1_(JR-FL) Env(−)ΔCT glycoprotein (uncleaved, cytoplasmic tail-truncated envelope glycoprotein precursor) (natural protein)
stoichiometry N: 3
